These results are taken from patent US20110091463A1 (AbbVie / Abbott, published 2011).

For assay [1], the target named is IL-1β (MRC5 bioassay). Kind of assay: cell-based or functional assay.
The target in assay [2] is NGF (Neuroscreen-1 bioassay). The assay is described as follows: cell-based or functional assay.
Assay [3] deals with T1, IL-6R on TF-1 cells (UniProt P08887 20-468, limits assumed).
T1 sequence (looked up): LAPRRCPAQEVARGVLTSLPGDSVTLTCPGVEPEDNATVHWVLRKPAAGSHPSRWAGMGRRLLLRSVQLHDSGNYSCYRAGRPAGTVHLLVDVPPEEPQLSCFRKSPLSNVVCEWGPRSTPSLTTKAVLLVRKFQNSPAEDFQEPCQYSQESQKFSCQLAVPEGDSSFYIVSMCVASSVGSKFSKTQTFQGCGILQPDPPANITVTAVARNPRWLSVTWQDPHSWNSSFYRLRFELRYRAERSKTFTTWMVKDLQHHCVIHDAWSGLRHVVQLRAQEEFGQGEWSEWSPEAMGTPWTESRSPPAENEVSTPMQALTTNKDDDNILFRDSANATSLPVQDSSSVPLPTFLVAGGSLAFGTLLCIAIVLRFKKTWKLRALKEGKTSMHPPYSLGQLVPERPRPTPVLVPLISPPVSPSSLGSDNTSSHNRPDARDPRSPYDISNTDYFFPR
The assay is described as follows: cell-based or functional assay.

The target in assay [4] is T2, Recombinant Human IL-6 sR (human, UniProt P08887 20-358, limits assumed).
T2 construct: Bought soluble receptor ('sR'); also called IL-6R
T2 sequence (looked up): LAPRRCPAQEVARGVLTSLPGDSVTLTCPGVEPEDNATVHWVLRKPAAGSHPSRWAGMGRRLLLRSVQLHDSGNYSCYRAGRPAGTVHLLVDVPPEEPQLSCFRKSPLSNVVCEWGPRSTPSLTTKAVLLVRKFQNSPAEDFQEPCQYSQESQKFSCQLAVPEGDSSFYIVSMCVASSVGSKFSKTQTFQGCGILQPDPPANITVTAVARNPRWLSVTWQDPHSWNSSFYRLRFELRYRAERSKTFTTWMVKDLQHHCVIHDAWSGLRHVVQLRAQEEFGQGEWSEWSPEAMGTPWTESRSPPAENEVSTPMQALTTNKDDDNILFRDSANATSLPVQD
The assay is described as follows: SPR (Biacore), antibody captured on chip, antigen injected, 25 C. The method, then:
(§1) The BIACORE assay (Biacore, Inc, Piscataway, N.J.) determines the affinity of antibodies or DVD-Ig with kinetic measurements of on-rate and off-rate constants. Binding of antibodies or DVD-Ig to a target antigen (for example, a purified recombinant target antigen) is determined by surface plasmon resonance-based measurements with a Biacore® 1000 or 3000 instrument (Biacore® AB, Uppsala, Sweden) using running HBS-EP (10 mM HEPES [pH 7.4], 150 mM NaCl, 3 mM EDTA, and 0.005% surfactant P20) at 25° C. All chemicals are obtained from Biacore® AB (Uppsala, Sweden) or otherwise from a different source as described in the text. For example, approximately 5000 RU of goat anti-mouse IgG, (Fcγ), fragment specific polyclonal antibody (Pierce Biotechnology Inc, Rockford, Ill.) diluted in 10 mM sodium acetate (pH 4.5) is directly immobilized across a CM5 research grade biosensor chip using a standard amine coupling kit according to manufacturer's instructions and procedures at 25 μg/ml. Unreacted moieties on the biosensor surface are blocked with ethanolamine. Modified carboxymethyl dextran surface in flowcell 2 and 4 is used as a reaction surface. Unmodified carboxymethyl dextran without goat anti-mouse IgG in flow cell 1 and 3 is used as the reference surface. For kinetic analysis, rate equations derived from the 1:1 Langmuir binding model are fitted simultaneously to association and dissociation phases of all eight injections (using global fit analysis) with the use of Biaevaluation 4.0.1 software. Purified antibodies or DVD-Ig are diluted in HEPES-buffered saline for capture across goat anti-mouse IgG specific reaction surfaces. Antibodies or DVD-Ig to be captured as a ligand (25 μg/ml) are injected over reaction matrices at a flow rate of 5 μl/min. The association and dissociation rate constants, kₒₙ (M⁻¹ s⁻¹) and koff (s⁻¹) are determined under a continuous flow rate of 25 μl/min. Rate constants are derived by making kinetic binding measurements at different antigen concentrations ranging from 10-200 nM. The equilibrium dissociation constant (M) of the reaction between antibodies or DVD-Igs and the target antigen is then calculated from the kinetic rate constants by the following formula: KD=koff/kₒₙ. Binding is recorded as a function of time and kinetic rate constants are calculated.
For orientation: SPR reads the build-up and loss of mass on a sensor chip optically.

In assay [5] the target is T3, Recombinant Human β-NGF (human, UniProt P01138 122-241).
T3 construct: Bought reagent
T3 sequence (P01138 122-241 limits assumed): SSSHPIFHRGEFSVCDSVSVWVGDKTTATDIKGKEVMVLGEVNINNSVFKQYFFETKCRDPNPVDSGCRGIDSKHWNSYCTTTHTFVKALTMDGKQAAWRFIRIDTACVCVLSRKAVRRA
Described as above. On the procedure:
as §1

Assay [6] has as its target T4, Recombinant Human IL-1β (human, UniProt P01584 117-269).
T4 construct: Bought reagent; also called IL-1b; Il-1b
Kind of assay: SPR (Biacore), DVD-Ig captured on chip, antigen injected, 25 C. The method, then: as §1, with “Antibodies or DVD-Ig to be captured as a ligand (25 μg/ml) are injected over reaction matrices at a flow rate of 5 μl/min.” left out, “Rate constants are derived by making kinetic binding measurements at different antigen concentrations ranging from 10-200 nM.” left out

NGF (Neuroscreen-1 bioassay), sequence (P01138 122-241): as the sequence (P01138 122-241 limits assumed) above
IL-1β (MRC5 bioassay), sequence (P01584 117-269): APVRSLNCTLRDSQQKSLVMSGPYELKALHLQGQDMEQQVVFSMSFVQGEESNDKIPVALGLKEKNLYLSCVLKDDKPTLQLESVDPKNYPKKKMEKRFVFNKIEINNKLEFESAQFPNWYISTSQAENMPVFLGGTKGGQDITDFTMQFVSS

B1: DVD949 (bispecific antibody, human IgG1, kappa)
heavy: not shown
light: DIQMTQSPSSLSASVGDRVTITCRASEDIYNALAWYQQKPGKAPKLLIYNTDTLHTGVPSRFSGSGSGTDYTLTISSLQPEDFATYFCQHYFHYPRTFGQGTKVEIKRTVAAPDIQMTQSPSSLSASVGDRVTITCRASGNIHNYLTWYQQTPGKAPKLLIYNAKTLADGVPSRFSGSGSGTDYTFTISSLQPEDIATYYCQHFWSIPYTFGQGTKLQITTVAAPSVFIFPPSDEQLKSGTASVVCLLNNFYPREAKVQWKVDNALQSGNSQESVTEQDSKDSTYSLSSTLTLSKADYEKHKVYACEVTHQGLSSPVTKSFNRGEC
For the molecule B1, in assay [1], the “N-Terminal VD IL-1β Neutralization Assay EC50 nM (IL-8 release by MRC5 cells)” value is 0.148 nM. Also, the “N-Terminal VD NGF Inhibition Assay EC50 pM (ERK1/2 phosphorylation in Neuroscreen-1 cells)” value in assay [2] is 55 pM.

B2: DVD933 (bispecific antibody, human IgG1, kappa)
heavy: not shown
light: DIQMTQSPSSLSASVGDRVTITCRASEDIYNALAWYQQKPGKAPKLLIYNTDTLHTGVPSRFSGSGSGTDYTLTISSLQPEDFATYFCQHYFHYPRTFGQGTKVEIKRTVAAPDVLMTQTPLSLPVTPGEPASISCTSSQNIVHSNGNTYLEWYLQKPGQSPQLLIYKVSNRFSGVPDRFSGSGSGTDFTLKISRVEAEDVGVYYCFQVSHVPYTFGGGTKVEIKRTVAAPSVFIFPPSDEQLKSGTASVVCLLNNFYPREAKVQWKVDNALQSGNSQESVTEQDSKDSTYSLSSTLTLSKADYEKHKVYACEVTHQGLSSPVTKSFNRGEC
Take B2: the “N-Terminal VD NGF Inhibition Assay EC50 pM (ERK1/2 phosphorylation in Neuroscreen-1 cells)” value in assay [2] came out at 49 pM.

B3: AB054 (antibody, V domains shown)
VH: EVQLQESGPGLVRPSQTLSLTCTVSGYSITSDHAWSWVRQPPGRGLEWIGYISYSGITTYNPSLKSRVTMLRDTSKNQFSLRLSSVTAADTAVYYCARSLARTTAMDYWGQGSLVTVSS
VL: DIQMTQSPSSLSASVGDRVTITCRASQDISSYLNWYQQKPGKAPKLLIYYTSRLHSGVPSRFSGSGSGTDFTFTISSLQPEDIATYYCQQGNTLPYTFGQGTKVEIKR
notes: Parent antibody; also called IL-6R parent antibody; AB054VH
The term Kd denotes the equilibrium constant for the complex coming apart. Broadly, the koff is the rate constant with which the complex falls apart. Broadly, the kon is a measure of how fast the partners come together. Regarding B3, in assay [3], the “IL-6 Inhibition Assay EC50 µM (IL-6 induced pSTAT3 in TF-1 cells)” value is 0.07 µM. Also, in assay [4], the Kd was 0.614 nM, the koff turned out to be 0.000206 s⁻¹ and the kon came to 336000 M⁻¹ s⁻¹.

B4: AB020 (antibody, V domains shown)
VH: QVQLQESGPGLVKPSETLSLTCTVSGFSLIGYDLNWIRQPPGKGLEWIGIIWGDGTTDYNSAVKSRVTISKDTSKNQFSLKLSSVTAADTAVYYCARGGYWYATSYYFDYWGQGTLVTVSS
VL: DIQMTQSPSSLSASVGDRVTITCRASQSISNNLNWYQQKPGKAPKLLIYYTSRFHSGVPSRFSGSGSGTDFTFTISSLQPEDIATYYCQQEHTLPYTFGQGTKLEIKR
notes: Parent antibody; also called AB020VH
As to B4, in assay [5], the Kd turned out to be 0.00673 nM, the koff was 4.08e-06 s⁻¹ and the kon was determined as 606000 M⁻¹ s⁻¹.

B5: DVD1207 (bispecific antibody, human IgG1, kappa)
heavy: not shown
light: DIQMTQSPSSLSASVGDRVTITCRASQDISSYLNWYQQKPGKAPKLLIYYTSRLHSGVPSRFSGSGSGTDFTFTISSLQPEDIATYYCQQGNTLPYTFGQGTKVEIKRTVAAPDIQMTQSPSSLSASVGDRVTITCRASEDIYNALAWYQQKPGKAPKLLIYNTDTLHTGVPSRFSGSGSGTDYTLTISSLQPEDFATYFCQHYFHYPRTFGQGTKVEIKRTVAAPSVFIFPPSDEQLKSGTASVVCLLNNFYPREAKVQWKVDNALQSGNSQESVTEQDSKDSTYSLSSTLTLSKADYEKHKVYACEVTHQGLSSPVTKSFNRGEC
For B5, the “N-Terminal VD IL-6 Inhibition Assay EC50 µM (IL-6 induced pSTAT3 in TF-1 cells)” value in assay [3] is 0.089 µM. Moreover, the “C-Terminal VD NGF Inhibition Assay EC50 pM (ERK1/2 phosphorylation in Neuroscreen-1 cells)” value in assay [2] was over 5000 pM.

B6: DVD950 (bispecific antibody, human IgG1, kappa)
heavy: not shown
light: DIQMTQSPSSLSASVGDRVTITCRASGNIHNYLTWYQQTPGKAPKLLIYNAKTLADGVPSRFSGSGSGTDYTFTISSLQPEDIATYYCQHFWSIPYTFGQGTKLQITTVAAPDIQMTQSPSSLSASVGDRVTITCRASEDIYNALAWYQQKPGKAPKLLIYNTDTLHTGVPSRFSGSGSGTDYTLTISSLQPEDFATYFCQHYFHYPRTFGQGTKVEIKRTVAAPSVFIFPPSDEQLKSGTASVVCLLNNFYPREAKVQWKVDNALQSGNSQESVTEQDSKDSTYSLSSTLTLSKADYEKHKVYACEVTHQGLSSPVTKSFNRGEC
notes: DVD-Ig; also called DVD950H; DVD950L
Regarding B6, the “C-Terminal VD IL-1β Neutralization Assay EC50 nM (IL-8 release by MRC5 cells)” value in assay [1] stood at 26 nM. Moreover, the “C-Terminal VD NGF Inhibition Assay EC50 pM (ERK1/2 phosphorylation in Neuroscreen-1 cells)” value in assay [2] is 316 pM. In assay [6], the equilibrium dissociation constant (Kd) was found to be 0.495 nM, the koff stood at 0.000487 s⁻¹ and the kon is 983000 M⁻¹ s⁻¹.

B7: DVD934 (bispecific antibody, human IgG1, kappa)
heavy: not shown
light: DVLMTQTPLSLPVTPGEPASISCTSSQNIVHSNGNTYLEWYLQKPGQSPQLLIYKVSNRFSGVPDRFSGSGSGTDFTLKISRVEAEDVGVYYCFQVSHVPYTFGGGTKVEIKRTVAAPDIQMTQSPSSLSASVGDRVTITCRASEDIYNALAWYQQKPGKAPKLLIYNTDTLHTGVPSRFSGSGSGTDYTLTISSLQPEDFATYFCQHYFHYPRTFGQGTKVEIKRTVAAPSVFIFPPSDEQLKSGTASVVCLLNNFYPREAKVQWKVDNALQSGNSQESVTEQDSKDSTYSLSSTLTLSKADYEKHKVYACEVTHQGLSSPVTKSFNRGEC
In the case of B7, the “C-Terminal VD NGF Inhibition Assay EC50 pM (ERK1/2 phosphorylation in Neuroscreen-1 cells)” value in assay [2] was over 5000 pM.
